Data set [1] in a line: Stability of ATM in isolated PBMC samples stored at different temperatures, measured by sandwich immunoassay. It counts as physicochemical. The conditions noted are these: for amount of ATM: in ng/mL (unit assumed). As for the experimental part: The following is a sandwich immunoassay which was performed to measure ATM protein in nuclear cell lysates and cell extracts from cell lines and peripheral blood mononuclear cells taken from normal individuals and A-T patients.
Wells of a 96-well flat bottom plate were incubated with two purified commercially available anti-ATM mouse monoclonal antibodies (ATM-2C1, GeneTex, Inc, San Antonio, Tex.; Ab-8, NeoMarkers, Fremont, Calif.) at 5 μg/ml in phosphate-buffered saline, pH 7.4 for 6 hours. After extensive washing and blocking of the wells for one hour with a solution of 3% bovine serum albumin in phosphate buffered saline containing 0.1% Tween-20, standard concentrations of purified ATM protein and nuclear cell lysates or cell extracts (see below) were added to the wells for an overnight incubation at room temperature.
After extensive washing, a rabbit anti-ATM antiserum at a 400× dilution was added to each of the wells and incubated for 3 hours at room temperature. The antiserum came from Novus Biologicals (NB 100-104, Littleton, Colo.). After washing and blocking, an HRP-conjugated goat anti-rabbit IgG antiserum at a 1:6000 dilution was added to each well and incubated for 3 hours at room temperature. The conjugate came from Jackson ImmunoResearch Laboratories (211-035-109, West Grove, Pa.).
The plate was then washed and Pierce ImmunoPure tetramethylbenzidine (TMB) substrate (34021, Rockford, Ill.) was added to each well. After color development, the reaction was stopped with 1M sulfuric acid and the color intensity was measured spectrophometrically at 450 nm. A concentration curve was generated based on signals generated for the purified ATM protein and concentrations of unknown samples were read off the standard curve.
Nuclear lysates were prepared from lymphoblastoid cell lines (EBV-infected) derived from A-T patients and healthy donors using commercially available extraction reagents and procedures (78833, Pierce, Rockford, Ill.). Whole cell extracts were generated from peripheral blood mononuclear cells and lymphoblastoid cell lines by subjecting known numbers of resuspended cells to ultrasonic energy at a 20 kHz frequency generated by a Fisher Sonic Dismembrator (model 550). The disrupted cell product was then added directly to wells of the microtiter plate without any additional manipulations.
(§1) It has been observed that ATM protein is unstable in whole blood. […] It is therefore preferable that ATM proteins be isolated and measured shortly after extracting the cells from a patient to obtain the most reliable data. […] Table 2 compares the amount of ATM in two such samples stored at −5° C. and −70° C.

Data set [2] can be described thus: Stability of ATM protein in whole blood. Format: physicochemical. Particulars: FIG. 3. As for the experimental part: as §1

The results in this text go back to patent US20040029198A1, “Method of analyzing ataxia-telangiectasia protein” (priority 2002, published 2004).

Regarding “ATM: 370 kDa protein kinase known as "ataxia-telangiectasia, mutated" (ATM), encoded by the A-T gene”, in data set [1] (PBMCs isolated from fresh blood, stored at −70° C. for 6 weeks), the “stability of ATM levels in a sample” value is given as “relatively stable”. The “amount of ATM” value in data set [1] (stored at −5° C., week 0, 3 readings) is listed as 444 ± 22; in data set [1] (stored at −5° C., week 1, 3 readings), 126 ± 8; in data set [1] (stored at −5° C., week 2, 3 readings), 115 ± 14; in data set [1] (stored at −5° C., week 3, 3 readings), 66 ± 17; in data set [1] (stored at −5° C., week 4, 3 readings) it was 50 ± 10; in data set [1] (stored at −5° C., week 6, 3 readings) it was 32 ± 2. Also, the “amount of ATM” value in data set [1] (stored at −70° C., week 0, 3 readings) turned out to be 444 ± 22; in data set [1] (stored at −70° C., week 1, 3 readings) it was 458 ± 11; in data set [1] (stored at −70° C., week 2, 3 readings), 512 ± 63; in data set [1] (stored at −70° C., week 3, 3 readings) it was 424 ± 34; in data set [1] (stored at −70° C., week 4, 3 readings), 439 ± 79; in data set [1] (stored at −70° C., week 6, 3 readings), 458 ± 69. Besides, the “stability in whole blood” value in data set [2] is reported as “unstable”.
